From patent US20240261333A1 (published 2024)

Legend:
Experiment in all cases: co-IP with anti-FLAG, mass spectrometry; N-FLAG B3GNT2
[1] = biological target: T1, LYZ (UniProt P61626 19-148)
T1 construct: Protein found in the co-IP by mass spectrometry; also called NP_000230.1
T1 sequence (looked up): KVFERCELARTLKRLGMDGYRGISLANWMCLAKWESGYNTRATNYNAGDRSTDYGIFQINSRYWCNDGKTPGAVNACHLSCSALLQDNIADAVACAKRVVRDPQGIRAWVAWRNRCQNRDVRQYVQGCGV
Procedure: (§1) Cells were plated in 10-cm cell culture dishes and grown to 60-80% confluency. For each condition, two biological replicates were harvested for co-IP. Cells were washed with PBS and 4 mL of lysis buffer (20 mM HEPES, 1% Triton X-100, 150 mM NaCl, 1 mM EDTA, and 10% glycerol) containing protease inhibitor cocktail was added. Cells were scraped and lysate was incubated at 4° C. under rotary agitation for 1 h. Lysate was centrifuged at 14,000×g for 10 min at 4° C. Supernatant was transferred to a new tube and an aliquot was taken as the input. […] For Western blots, 10 μg/mL Chicken Anti-FLAG (Aves labs ET-DY100) and IgY control (R&D Systems AB-101-C) antibodies were biotinylated (Thermo Fisher Scientific 90407) and added to the respective conditions. Lysates with antibodies were incubated at 4° C. under rotary agitation overnight. For each mL of lysate, 50 μL of Pierce Protein A/G Magnetic Beads (Mass spectrometry; Thermo Fisher Scientific 88803) or Pierce Streptavidin Magnetic Beads (Western blot; Thermo Fisher Scientific 88817) was washed twice with lysis buffer. Lysates with antibodies were added to the beads and incubated at 4° C. under rotary agitation for 4 h. Beads were washed with lysis buffer 3 times and resuspended in lysis buffer for storage.
(§2) Magnetic beads were resuspended in 100 mM Tris pH 7.8, reduced, alkylated and digested with trypsin at 37° ° C. overnight. This solution was subjected to solid phase extraction to concentrate the peptides and remove unwanted reagents followed by injection onto a Shimadzu HPLC with fraction collector. Eight fractions were collected and after concentration were injected on a Waters NanoAcquity HPLC equipped with a self-packed Aeris 3 μm C18 analytical column 0.075 mm by 20 cm, (Phenomenex). Peptides were eluted using standard reverse-phase gradients. The effluent from the column was analyzed using a Thermo Orbitrap Elite mass spectrometer (nanospray configuration) operated in a data dependent manner for 54 minutes. The resulting fragmentation spectra were correlated against the known database using Proteome Discover 1.4 (Thermo Fisher Scientific).

[2] = biological target: T2, EEF1A1 (UniProt P68104 2-462)
T2 construct: Endogenous protein found in the co-IP by mass spectrometry; also called NP_001393.1
T2 sequence (looked up): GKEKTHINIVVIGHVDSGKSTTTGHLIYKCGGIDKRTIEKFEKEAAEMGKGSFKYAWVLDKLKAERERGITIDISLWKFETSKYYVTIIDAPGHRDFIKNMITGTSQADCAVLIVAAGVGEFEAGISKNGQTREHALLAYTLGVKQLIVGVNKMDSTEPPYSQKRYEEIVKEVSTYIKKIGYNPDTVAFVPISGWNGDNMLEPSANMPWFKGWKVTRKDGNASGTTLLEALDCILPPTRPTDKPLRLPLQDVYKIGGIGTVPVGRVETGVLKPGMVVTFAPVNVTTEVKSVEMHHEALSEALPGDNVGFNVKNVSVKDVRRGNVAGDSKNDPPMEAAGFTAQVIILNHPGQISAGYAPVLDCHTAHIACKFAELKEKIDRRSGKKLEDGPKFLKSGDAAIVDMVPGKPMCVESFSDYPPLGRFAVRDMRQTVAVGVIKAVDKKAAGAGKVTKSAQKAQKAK
Procedure: as §1, §2

[3] = biological target: T3, HBA1 (UniProt P69905 2-142)
T3 construct: Protein found in the co-IP by mass spectrometry; also called NP_000549.1
Procedure: as §1, §2

[4] = biological target: RPL36 (UniProt Q9Y3U8 2-105)
Procedure: as §1, §2

[5] = biological target: T4, YBX3 (UniProt P16989 2-372, limits assumed)
T4 construct: Endogenous protein found in the co-IP by mass spectrometry; also called XP_016875611.1 (+1)
Procedure: as §1, §2

[6] = biological target: T5, RCC2 (UniProt Q9P258 1-522)
T5 construct: Endogenous protein found in the co-IP by mass spectrometry; also called NP_061185.1
Procedure: as §1, §2

[7] = biological target: RPL36A (UniProt P83881 1-106)
Procedure: as §1, §2

[8] = biological target: RPL35A (UniProt P18077 1-110)
Procedure: as §1, §2

[9] = biological target: RPS17 (UniProt P08708 2-135)
Procedure: as §1, §2

[10] = biological target: T6, TPI1 (UniProt P60174 2-249)
T6 construct: Endogenous protein found in the co-IP by mass spectrometry; also called NP_000356.1 (+2)
Procedure: as §1, §2

[11] = biological target: T7, HNRNPF (UniProt P52597 2-415)
T7 construct: Endogenous protein found in the co-IP by mass spectrometry; also called NP_001091676.1
T7 sequence (looked up): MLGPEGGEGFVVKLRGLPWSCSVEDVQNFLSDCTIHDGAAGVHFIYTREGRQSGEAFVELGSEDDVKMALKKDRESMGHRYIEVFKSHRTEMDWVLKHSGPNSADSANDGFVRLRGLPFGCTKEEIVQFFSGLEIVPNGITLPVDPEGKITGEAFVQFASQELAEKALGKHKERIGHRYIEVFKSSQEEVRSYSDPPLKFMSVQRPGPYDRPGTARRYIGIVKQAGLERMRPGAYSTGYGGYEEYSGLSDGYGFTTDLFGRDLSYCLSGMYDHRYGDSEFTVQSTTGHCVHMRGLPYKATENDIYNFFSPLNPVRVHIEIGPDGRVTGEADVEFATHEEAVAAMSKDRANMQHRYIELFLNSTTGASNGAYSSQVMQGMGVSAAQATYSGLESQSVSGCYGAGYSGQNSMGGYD
Procedure: as §1, §2

[12] = biological target: RPL31 (UniProt P62899 1-125)
Procedure: as §1, §2

T6 sequence (P60174 2-249 limits assumed): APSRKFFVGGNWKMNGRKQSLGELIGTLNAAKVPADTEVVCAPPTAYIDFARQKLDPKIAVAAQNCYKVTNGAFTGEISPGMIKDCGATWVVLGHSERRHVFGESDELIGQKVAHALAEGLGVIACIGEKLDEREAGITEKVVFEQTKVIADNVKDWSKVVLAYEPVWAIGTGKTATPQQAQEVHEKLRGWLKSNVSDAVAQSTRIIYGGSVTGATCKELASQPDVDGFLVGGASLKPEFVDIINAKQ
T3 sequence (P69905 2-142 limits assumed): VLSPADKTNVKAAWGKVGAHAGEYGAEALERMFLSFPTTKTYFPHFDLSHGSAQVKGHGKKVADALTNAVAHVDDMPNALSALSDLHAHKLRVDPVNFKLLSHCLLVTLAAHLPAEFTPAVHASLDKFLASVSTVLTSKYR
T4 sequence (P16989 2-372 limits assumed): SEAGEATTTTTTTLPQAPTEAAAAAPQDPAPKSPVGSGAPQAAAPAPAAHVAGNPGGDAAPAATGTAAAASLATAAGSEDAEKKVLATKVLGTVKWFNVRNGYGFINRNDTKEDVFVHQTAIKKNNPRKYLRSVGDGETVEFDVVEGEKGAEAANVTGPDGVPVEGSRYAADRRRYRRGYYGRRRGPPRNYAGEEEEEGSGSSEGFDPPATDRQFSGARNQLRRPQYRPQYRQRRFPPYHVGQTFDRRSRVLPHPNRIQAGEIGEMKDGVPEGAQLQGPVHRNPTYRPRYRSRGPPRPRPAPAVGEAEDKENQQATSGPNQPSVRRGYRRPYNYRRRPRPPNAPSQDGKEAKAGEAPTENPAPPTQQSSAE
T5 sequence (Q9P258 whole entry): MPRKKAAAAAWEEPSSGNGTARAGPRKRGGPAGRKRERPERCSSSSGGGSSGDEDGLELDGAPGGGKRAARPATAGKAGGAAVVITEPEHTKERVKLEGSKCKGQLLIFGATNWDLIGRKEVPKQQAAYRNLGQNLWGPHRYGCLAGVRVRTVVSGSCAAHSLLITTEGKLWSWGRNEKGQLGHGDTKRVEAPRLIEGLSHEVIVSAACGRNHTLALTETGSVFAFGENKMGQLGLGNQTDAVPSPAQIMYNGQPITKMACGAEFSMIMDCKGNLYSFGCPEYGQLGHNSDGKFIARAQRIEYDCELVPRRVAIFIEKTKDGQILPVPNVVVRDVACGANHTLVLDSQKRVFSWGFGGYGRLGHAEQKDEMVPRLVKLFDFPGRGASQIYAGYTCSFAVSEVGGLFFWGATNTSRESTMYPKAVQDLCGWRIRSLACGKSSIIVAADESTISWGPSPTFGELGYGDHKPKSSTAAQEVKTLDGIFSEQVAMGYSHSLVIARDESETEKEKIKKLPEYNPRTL

B1: N-terminal FLAG tagged B3GNT2 (enzyme, human, UniProt Q9NY97 1-397, looked up)
chain: MSVGRRRIKLLGILMMANVFIYFIMEVSKSSSQEKNGKGEVIIPKEKFWKISTPPEAYWNREQEKLNRQYNPILSMLTNQTGEAGRLSNISHLNYCEPDLRVTSVVTGFNNLPDRFKDFLLYLRCRNYSLLIDQPDKCAKKPFLLLAIKSLTPHFARRQAIRESWGQESNAGNQTVVRVFLLGQTPPEDNHPDLSDMLKFESEKHQDILMWNYRDTFFNLSLKEVLFLRWVSTSCPDTEFVFKGDDDVFVNTHHILNYLNSLSKTKAKDLFIGDVIHNAGPHRDKKLKYYIPEVVYSGLYPPYAGGGGFLYSGHLALRLYHITDQVHLYPIDDVYTGMCLQKLGLVPEKHKGFRTFDIEEKNKNNICSYVDLMLVHSRKPQEMIDIWSQLQSAHLKC
notes: FLAG-tagged ORF overexpressed in cells; bait of the anti-FLAG co-IP; also called N-FLAG B3GNT2; N-term FLAG; not shown: FLAG tag at the N-terminus
- co-IP mass spectrometry count [1]: 3
- co-IP mass spectrometry count [2]: 13
- co-IP mass spectrometry count [3]: 3
- co-IP mass spectrometry count [4]: 0
- co-IP mass spectrometry count [5]: 0
- co-IP mass spectrometry count [6]: 0
- co-IP mass spectrometry count [7]: 3
- co-IP mass spectrometry count [8]: 0
- co-IP mass spectrometry count [9]: 5
- co-IP mass spectrometry count [10]: 3
- co-IP mass spectrometry count [11]: 0
- co-IP mass spectrometry count [12]: 0
